Laboratory results published in article PMC11098746 (2024).
No end group written: not given here.

B1: ADP261 (protein)
chain: KWETKNCSVSSTNANDITQSLTGKGNDSEEEMRFQEVFMEHMSNMEKRIQHILDMEANLMDTEHFQNFSMTTDQRFNDILLQLSTLFSSVQGHGNAIDEISKSLISLNTTLLDLQLNIENLNGKIQENTFKQQEEISKLEERVYNVSAEIMAMKEEQVHLEQEIKGEVKVLNNITNDLRLKDWEHSQTLRNITLIQGPPGPPGEKGDRGPTGESGPRGFPGPIGPPGLKGDRGAIGFPGSRGLPGYAGRPGNSGPKGQKGEKGSGNTLTPFTKVRLVGGSGPHEGRVEILHSGQWGTICDDRWEVRVGQVVCRSLGYPGVQAVHKAAHFGQGTGPIWLNEVFCFGRESSIEECKIRQWGTRACSHSEDAGVTCTL
modifications: bait human Fc-tagged dimer
B2: ADP341 (protein)
chain: MEAAVAAPRPRLLLLVLAAAAAAAAALLPGATALQCFCHLCTKDNFTCVTDGLCFVSVTETTDKVIHNSMCIAEIDLIPRDRPFVCAPSSKTGSVTTTYCCNQDHCNKIELPTTVKSSPGLGP
modifications: bait human Fc-tagged dimer
B3: ADP155 (protein)
chain: MAPARLFALLLFFVGGVAESIRETEVIDPQDLLEGRYFSGALPDDEDVVGPGQESDDFELSGSGDLDDLEDSMIGPEVVHPLVPLDNHIPERAGSGSQVPTEPKKLEENEVIPKRISPVEESEDVSNKVSMSSTVQGSNIFERTEV
modifications: bait human Fc-tagged dimer
B4: ADP146 (protein)
chain: MVAWRSAFLVCLAFSLATLVQRGSGDFDDFNLEDAVKETSSVKQPWDHTTTTTTNRPGTTRAPAKPPGSGLDLADALDDQDDGRRKPGIGGRERWNHVTTTTKRPVTTRAPANTLGNDFDLADALDDRNDRDDGRRKPIAGGGGFSDKDLEDIVGGGEYKPDKGKGDGRYGSNDDPGSGMVAEP
modifications: bait human Fc-tagged dimer
B5: ADP379 (protein)
chain: PCPDRPASQRMWRIDYSAAVIYDFLAVDDINGDRIQDVLFLYKNTNSSNNFSRSCVDEGFSSPCTFAAAVSGANGSTLWERPVAQDVALVECAVPQPRGSEAPSACILVGRPSSFIAVNLFTGETLWNHSSSFSGNASILSPLLQVPDVDGDGAPDLLVLTQEREEVSGHLYSGSTGHQIGLRGSLGVDGESGFLLHVTRTGAHYILFPCASSLCGCSVKGLYEKVTGSGGPFKSDPHWESMLNATTRRMLSHSSGAVRYLMHVPGNAGADVLLVGSEAFVLLDGQELTPRWTPKAAHVLRKPIFGRYKPDTLAVAVENGTGTDRQILFLDLGTGAVLCSLALPSLPGGPLSASLPTADHRSAFFFWGLHELGSTSETETGEARHSLYMFHPTLPRVLLELANVSTHIVAFDAVLFEPSRHAAYILLTGPADSEAPGLVSVIKHKVRDLVPSSRVVRLGEGGPDSDQAIRDRFSRLRYQSEA
modifications: bait human Fc-tagged dimer
B6: ADP267 (protein)
chain: CKYKKSSGQLWSWMVCLAGLCAVCLLILSPFWGLILFSVSCFLMYTYLSGQELLPVDQKAVLVTGGDCGLGHALCKYLDELGFTVFAGVLNENGPGAEELRRTCSPRLSVLQMDITKPVQIKDAYSKVAAMLQDRGLWAVINNAGVLGFPTDGELLLMTDYKQCMAVNFFGTVEVTKTFLPLLRKSKGRLVNVSSMGGGAPMERLASYGSSKAAVTMFSSVMRLELSKWGIKVASIQPGGFLTNIAGTSDKWEKLEKDILDHLPAEVQEDYGQDYILAQRNFLLLINSLASKDFSPVLRDIQHAILAKSPFAYYTPGKGAYLWICLAHYLPIGIYDYFAKRHFGQDKPMPRALRMPNYKKKAT
modifications: bait human Fc-tagged dimer
B7: ADP115 (protein)
chain: MARPGQRWLGKWLVAMVVWALCRLATPLAKNLEPVSWSSLNPKFLSGKGLVIYPKIGDKLDIICPRAEAGRPYEYYKLYLVRPEQAAACSTVLDPNVLVTCNRPEQEIRFTIKFQEFSPNYMGLEFKKHHDYYITSTSNGSLEGLENREGGVCRTRTMKIIMKVGQDPNAVTPEQLTTSRPSKEADNTVKMATQAPGSRGSLGDSDGKHETVNQEEKSGPGASGGSSGDPDGFFNSKVAL
modifications: bait human Fc-tagged dimer
B8: ADP151 (protein)
chain: MALTLSVLICLGLSVGPRTCVQAGTLPKPTLWAEPASVIARGKPVTLWCQGPLETEEYRLDKEGLPWARKRQNPLEPGAKAKFHIPSTVYDSAGRYRCYYETPAGWSEPSDPLELVATGFYAEPTLLALPSPVVASGGNVTLQCDTLDGLLTFVLVEEEQKLPRTLYSQKLPKGPSQALFPVGPVTPSCRWRFRCYYYYRKNPQVWSNPSDLLEILVPGVSRKPSLLIPQGSVVARGGSLTLQCRSDVGYDIFVLYKEGEHDLVQGSGQQPQAGLSQANFTLGPVSRSHGGQYRCYGAHNLSPRWSAPSDPLDILIAGLIPDIPALSVQPGPKVASGENVTLLCQSWHQIDTFFLTKEGAAHPPLCLKSKYQSYRHQAEFSMSPVTSAQGGTYRCYSAIRSYPYLLSSPSYPQELVVSGPSGDPSLSPTGSTPTPGPEDQPLTPTGLDPQSGLG
modifications: bait human Fc-tagged dimer
B9: ADP320 (protein)
chain: MAAAPGLLVWLLVLRLPWRVPGQLDPSTGRRFSEHKLCADDECSMLMYRGEALEDFTGPDCRFVNFKKGDPVYVYYKLARGWPEVWAGSVGRTFGYFPKDLIQVVHEYTKEELQVPTDETDFVCFDGGRDDFHNYNVEELLGFLELYNSAATDSEKAVEKTLQDMEKNPELSKEREPEPEPVEANSEESDSVFSENTEDLQEQFTTQKHHSHANSQANHAQGEQASFESFEEMLQDKLKVPESENNKTSNSSQVSNEQDKIDAYKLLKKEMTLDLKTKFGSTADALVSDDETTRLVTSLEDDFDEELDTEYYAVGKEDEENQEDFDELPLLTFTDGEDMKTPAKSGVEKYPTDKEQNSNEEDKVQLTVPPGIKNDDKNILTTWGDTIFSIVTGGEETRDTMDLESSSSEEEKEDDDDALVPDSKQGKPQSATDYSDPDNVDDGLFIVDIPKTNNDKEVNAEHHIKGKGRGVQESKRGLVQDKTELEDENQEGMTVHSSVHSNNLNSMPAAEKGKDTLKSAYDDTENDLKGAAIHISKGMLHEEKPGEQILEGGSESESAQKAAGNQMNDRKIQQESLGSAPLMGDDHPNASRDSVEGDALVNGAKLHTLSVEHQREELKEELVLKTQNQPRFSSPDEIDLPRELEDEVPILGRNLPWQQERDVAATASKQMSEKIRLSEGEAKEDSLDEEFFHHKAMQGTEVGQTDQTDSTGGPAFLSKVEEDDYPSEELLEDENAINAKRSKEKNPGNQGRQFDVNLQVPDRAVLGTIHPDPEIEESKQETSMILDSEKTSETAAKGVNTGGREPNTMVEKERPLADKKAQRPFERSDFSDSIKIQTPELGEVFQNKDSDYLKNDNPEEHLKTSGLAGEPEGELSKEDHENTEKYMGTESQGSAAAEPEDDSFHWTPHTSVEPGHSDKREDLLIISSFFKEQQSLQRFQKYFNVHELEALLQEMSSKLKSAQQESLPYNMEKVLDKVFRASESQILSIAEKMLDTRVAENRDLGMNENNIFEEAAVLDDIQDLIYFVRYKHSTAEETATLVMAPPLEEGLGGAMEEMQPLHEDNFSREKTAELNVQVPEEPTHLDQRVIGDTHASEVSQKPNTEKDLDPGPVTTEDTPMDAIDANKQPETAAEEPASVTPLENAILLIYSFMFYLTKSLVATLPD
modifications: bait human Fc-tagged dimer
B10: ADP279 (protein)
chain: RMAHKFITGKLVEDERSDREETESSEGEEAAAGGGAKSRPLANGHPILNNNHRKND
modifications: also: human Fc-tagged dimer
B11: ADP354 (protein)
chain: MGPWSRSLSALLLLLQVSSWLCQEPEPCHPGFDAESYTFTVPRRHLERGRVLGRVNFEDCTGRQRTAYFSLDTRFKVGTDGVITVKRPLRFHNPQIHFLVYAWDSTYRKFSTKVTLNTVGHHHRPPPHQASVSGIQAELLTFPNSSPGLRRQKRDWVIPPISCPENEKGPFPKNLVQIKSNKDKEGKVFYSITGQGADTPPVGVFIIERETGWLKVTEPLDRERIATYTLFSHAVSSNGNAVEDPMEILITVTDQNDNKPEFTQEVFKGSVMEGALPGTSVMEVTATDADDDVNTYNAAIAYTILSQDPELPDKNMFTINRNTGVISVVTTGLDRESFPTYTLVVQAADLQGEGLSTTATAVITVTDTNDNPPIFNPTTYKGQVPENEANVVITTLKVTDADAPNTPAWEAVYTILNDDGGQFVVTTNPVNNDGILKTAKGLDFEAKQQYILHVAVTNVVPFEVSLTTSTATVTVDVLDVNEAPIFVPPEKRVEVSEDFGVGQEITSYTAQEPDTFMEQKITYRIWRDTANWLEINPDTGAISTRAELDREDFEHVKNSTYTALIIATDNGSPVATGTGTLLLILSDVNDNAPIPEPRTIFFCERNPKPQVINIIDADLPPNTSPFTAELTHGASANWTIQYNDPTQESIILKPKMALEVGDYKINLKLMDNQNKDQVTTLEVSVCDCEGAAGVCRKAQPVEAGLQIP
modifications: bait human Fc-tagged dimer
B12: ADP325 (protein)
chain: MAAAQEADGARSAVVAAGGGSSGQVTSNGSIGRDPPAETQPQNPPAQPAPNAWQVIKGVLFRIFIIWAISSWFRRGPAPQDQAGPGGAPRVASRNLFPKDTLMNLHVYISEHEHFTDFNATSALFWEQHDLVYGDWTSGENSDGCYEHFAELDIPQSVQQNGSIYIHVYFTKSGFHPDPRQKALYRRLATVHMSRMINKYKRRRFQKTKNLLTGETEADPEMIKRAEDYGPVEVISHWHPNITINIVDDHTPWVKGSVPPPLDQYVKFDAVSGDYYPIIYFNDYWNLQKDYYPINESLASLPLRVSFCPLSLWRWQLYAAQSTKSPWNFLGDELYEQSDEEQDSVKVALLETNP
modifications: bait human Fc-tagged dimer
B13: ADP284 (protein)
chain: SNAYSSPSVVLASYNHDGTRNILDDFREAYFWLRQNTDEHARVMSWWDYGYQIAGMANRTTLVDNNTWNNSHIALVGKAMSSNETAAYKIMRTLDVDYVLVIFGGVIGYSGDDINKFLWMVRIAEGEHPKDIRESDYFTPQGEFRVDKAGSPTLLNCLMYKMSYYRFGEMQLDFRTPPGFDRTRNAEIGNKDIKFKHLEEAFTSEHWLVRIYKVKAPDNRETLDHKPRVTNIFPKQKYLSKKTTKRKRGYIKNKLVFKKGKKISKKTV
modifications: bait human Fc-tagged dimer
B14: ADP317 (protein)
chain: MGSWALLWPPLLFTGLLVRPPGTMAQAQYCSVNKDIFEVEENTNVTEPLVDIHVPEGQEVTLGALSTPFAFRIQGNQLFLNVTPDYEEKSLLEAQLLCQSGGTLVTQLRVFVSVLDVNDNAPEFPFKTKEIRVEEDTKVNSTVIPETQLQAEDRDKDDILFYTLQEMTAGASDYFSLVSVNRPALRLDRPLDFYERPNMTFWLLVRDTPGENVEPSHTATATLVLNVVPADLRPPWFLPCTFSDGYVCIQAQYHGAVPTGHILPSPLVLRPGPIYAEDGDRGINQPIIYSIFRGNVNGTFIIHPDSGNLTVARSVPSPMTFLLLVKGQQADLARYSVTQVTVEAVAAAGSPPRFPQRLYRGTVARGAGAGVVVKDAAAPSQPLRIQAQDPEFSDLNSAITYRITNHSHFRMEGEVVLTTTTLAQAGAFYAEVEAHNTVTSGTATTVIEIQVSEQEPPSTDVPPSPEAGGTTGPWTSTTSEVPRPPEPSQGPSTTSSGGGTGPHPPSGTTLRPPTSSTPGGPPGAENSTSHQPATPGGDTAQTPKPGTSQPMPPGVGTSTSHQPATPSGGTAQTPEPGTSQPMPPSMGTSTSHQPATPGGGTAQTPEAGTSQPMPPGMGTSTSHQPTTPGGGTAQTPEPGTSQPMPLSKSTPSSGGGPSEDKRFSVVDMA
modifications: bait human Fc-tagged dimer

Target: Circumsporozoite protein (CSP) (Plasmodium falciparum (isolate 3D7), UniProt Q7K740)
Assay: AVEXIS screen signal:noise (double-corrected)

Chain of Circumsporozoite protein (CSP) (Q7K740 19-374): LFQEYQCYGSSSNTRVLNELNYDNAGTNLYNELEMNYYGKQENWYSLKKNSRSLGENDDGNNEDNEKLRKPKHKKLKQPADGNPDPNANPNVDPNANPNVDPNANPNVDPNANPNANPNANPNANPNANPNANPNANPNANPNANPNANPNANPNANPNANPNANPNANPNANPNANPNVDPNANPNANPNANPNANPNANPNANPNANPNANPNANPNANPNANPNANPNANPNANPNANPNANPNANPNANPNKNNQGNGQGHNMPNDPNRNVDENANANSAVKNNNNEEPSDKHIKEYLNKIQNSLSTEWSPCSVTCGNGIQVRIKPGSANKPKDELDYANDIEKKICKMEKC

| Binder | binding score |
| --- | --- |
| B1 | 0.837 |
| B2 | 1.43 |
| B3 | 0.582 |
| B4 | 1.36 |
| B5 | 2.44 |
| B6 | 0.806 |
| B7 | 1.09 |
| B8 | 1.33 |
| B9 | 1.04 |
| B10 | 1.03 |
| B11 | 0.796 |
| B12 | 1.73 |
| B13 | 0.868 |
| B14 | 2.47 |
